According to patent US20250302956A1:

Experiments:
Test in all cases: cell-based or functional assay
[1] = biological target: LAMWITQC (SEQ ID NO: 2) presented by HLA-A02 on T2 cells (human)
[2] = biological target: NY-ESO-1 peptide … (SEQ ID NO: 40) presented by HLA-A02 on T2 cells (human)
[3] = biological target: LLMWITQC (SEQ ID NO: 1) presented by HLA-A02 on T2 cells (human)

## native 1G4-α95: TS TCR
[1]
  average log 2FC in PresentER library coculture screen, CD8-native 1G4-α95: TS cells (log2 fold change): -4
[2]
  average log 2FC in PresentER library coculture screen, CD8-native 1G4-α95: TS cells (log2 fold change): -6.1
[3]
  average log 2FC in PresentER library coculture screen, CD8-native 1G4-α95: TS cells (log2 fold change): -5
